Laboratory results published in the NTF2 design screens of Basanta et al. (2020).

Test: protease stability score; higher = more stable; yeast display proteolysis, trypsin and chymotrypsin;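 further: relative to predicted unfolded state with 0 unfolded-like and 1 meaning tenfold more protease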
In the case of “DETENSLRTMLHRLLDSIRTGDFRTVDDLADPHVKIDVGDKHIHGREIYRKIVLQADHVESRFHLHDIHNIGNWAHVDGRLINHEVVDGQKIDLDLRIEIIVTKIDGKWTIESVRFE”, the protease stability score is reported as 1.46.
“DELDRISTRLADLFIHLVETGNWEFLKELLDPDVRMIIGDFELVGRETIIEFFEKLERHLGVDHSEIVIERRHSQGEKAELHTRLIVRVNGRKRVIDTRLELHWVDGRLKEINIHEH” showed a protease stability score of 1.17.
Work on “DEDHEDSKHALEYMLDSVRTGDEHRMKRLVDPNMKVHWDGVDVVGRELAAKFLSQLRVHSVHLKDHKVFDGQLDLHVHIRQEWDGRHRETRTTFFILKINGRWLVTEVRVD” yielded a protease stability score of 0.249.
In the case of “SEEDKKVEEAIKYLYSFLKTGDEHEVEDMIDPHVRIDVNGKNVHGWEEAFRWTVEHMKKLGVERFEVEIKDVHKQGNYVRVLGHSRFNGKEYEIEIILIKVNGRWIIKSHRIH”, the protease stability score is reported as 1.64.
“SEEEEAKRDLDERWFRSIETGDFHTLEKLLDPHAKVRINGKDYHGREYLEWEIRDLGVKVMEQRVIIHREHRQGDKIHLQGEIIRILHVDGREEHHRFEVHYVMLKINGRWILHRMEFR” gave a protease stability score of 0.883.
“DEEEEWVRHLAHLFFEWYLTGDWQRFSELMDPTTLSVYGDKHFHGMELVVEFLSRSLDEMRIEHVEFKDIRVYNGVAHVHLRFEGKIGDKRTETDSRLLLYVVDGRIKHVKFIIK” showed a protease stability score of 1.39.
In the case of “DDWEEEVHKFSRLFIKSVETGDEDTLHKFADPNVMLHQGDKEYHGREMFVRWSNELLRHLGVSKVRARMHDDKAYNGVVHLDLENRFNGRTVRIEVRIEKINGKWLMTEVRIE”, the protease stability score is reported as 0.622.
In the case of “NEEEKLSEEWSDHLLHNLITGDEEMLKRFMDPHTWAESEVDGQDEKYHGREQALHMVYRVIHRLGFNHFHIHRHRVIGDKIHVELRIVVGDKEVDAHFETIIINGKVHRIRIHVTKR”, the protease stability score is reported as 0.323.
With “DETKDDSDWAVELWEKLFKTGDEHLHERLADPHTRKEVGDKEFHGRELILKQFVEFVEKVKNIQLEFTHVKEQGEKVEMDTTLRIDGVRIRTKMIALKIDGVWLVKIIHIE” the protease stability score was 0.964.
In the case of “TEEEREFKEFVEHWMRAIETGDEELLYKLLDPNTQLNYNGVNNHGWHVIKHLEELLGIKVREMRIRDFHHIGDKIVLDVEDIIRIDGRTIILRTEILIVKVDGRWHLKSERVK”, the protease stability score is reported as 0.965.
Work on “SERHEKTKKVLDDFLEIRETGDEHTFNRLADPHTRVHIGDKYVHGMEDANKMLKQWEQEMGIDHIIIRHVEIRLFNGKVNHHLDEELIVNGQSLRVEVVLFIFKFDGRWVLEKLHINVH” yielded a protease stability score of 1.21.
Sequence “DEHEHLMLKVVLISIRALLTGDEDRFEHLADPHTRVEVNGVERHGREEYRKWLEHIRIKHIEVEESRAQGDFVHLNGRLRVSYGDKRFETETRWDWIIVDGKLKEMRIRIN” has a protease stability score of 1.26.
“SEDEKAVEDLFKLWVRDLVTGDEDSINKLLDPNARVEIGDKEFHGMEDVVRFLLHIRFKHVEMHDMRVQGNKATLHVDIRGVVDGRDRELDTILIIEKVNGKWYLHHQKIN” gave a protease stability score of 1.48.
With “DELERDSRRVMEKLLEILYTGNFDELRKLFDPNVITHIDGRHIHGMHITIRELLRIQEELGYEFVEARMTSTHHQGDKLYVHLEYRIGDKTTRFFWFITKIDGRWWITEMRFE” the protease stability score was 1.4.
In the case of “SEEEEHLDHALKNIIDLIRTGDENLQRELFDPRVRLVVGDKEFHGWETVVHRLREMRFKDFHVRRERIVGDKVHIDVEVNGNVDGRDDVMRMEIRIDKVNGQWRTKNVILN”, the protease stability score is reported as 2.05.
“DEHEEEVLRIARDFLEALRTGDEEHMTELMDPHVRLEVDGRDLHGREEVLRLLVEQWERIKNVTWEVERLEIVNGRLIIQLRVHVNGQNHDVRLYINVVDGVVKSIRHEKH” gave a protease stability score of 1.47.
For “SEDHHETQRALELLVTFLRTGDEHTLERLMDPDTRSIIDGVELHGREDMKEVLEWLVKQADHLESVHVRYLNVQGDKAQIHVELRGRFNGKHSIHEVHITTVKINGKWLITEVEFR”, the protease stability score was 1.93.
“DEFQHMAELASTLFQRSNHTGDEHSLQEMLDPNVRVIVGDKEFHGMEELLKTLRKELEILGVQRIETEVHQVNVQGNKINVDLILHVNGRERRIHLWAHKINGRWITERIEVR” gave a protease stability score of 0.922.
With “SEEEEEVEEFIHIFTESLKTGDEHSLRRLVDPHVRIEWNGRTHHGWQMFTRLVREARVEIVVRDIRVINGRAIINGELRYEQGDKTFTTEIEIIVVKFDGKWHMHHVRYK” the protease stability score was 2.21.
“DEDTKIVEEAIRYHKHNIETGNEEYMDKLADPNTRLEINGVEFHGRESYNHWMRRVLEHWRFHDIKIDSVDVFNGRVRFYGRRIVKIGEFTMIFEITYISTKFNGRWILEEEENR” showed a protease stability score of 0.564.
Sequence “DEEQKAADRVNQLHTESMLTGDEDEFKHLADPNTKFLINGVEFHGRDTLHRWLSEIRLHHHHFEVKHLNFYGDFVEVEGHVRLVFHVNGRRIDVSTRVRWIIEKVDGRWYVRQIHIN” has a protease stability score of 1.68.
With “DEEEETEKKWADIFTKAWITGDEETLERLMDPNVKYHQEVGDKHWSAHGREEVSRHIHELLKHLGVKVVELRRIHVINGVVHVDGKTIVNGREFTVHIHYRIVDGRVREIRFEFR” the protease stability score was 2.22.
Sequence “DEDHEAMKHFQHLLERTHRTGDEERLLRLLDPNVRIIINGQHFHGREWWARHINHMRFHEYEFRVHHINVYGDKIEIDGTLRRRGEFDGREHEVNIRVHLTIEKFDGRWYMHILEFR” has a protease stability score of 0.795.
Work on “SEEERVAKHVSHNLFESLKTGNEEEIEKFFDPNVKVQVGEFEHHGREAVLFWFHEFGIKHIHFHEERVQGDKMHSHLNLIVNGRHISHHIHFHKINGRWHITHQRFH” yielded a protease stability score of 0.828.
In the case of “DDEEEESEHAVKFWKHAQETGDFDEMRRLADPNVKVEIGDKELHGRKDFTRLLREHKEKLGVERIEVFIHDMHPINGRVTVHVIIEYNGQRQWFHVIFLKINGRWFIESMHIT”, the protease stability score is reported as 0.378.
With “DEHEDHVLEVFRIILEILLTGDFREWRRLADPTVRLEFNGREYHGRDEILEFLTQHIRHWRLKHIHIDNYEVYDGRIEVHGHIRFTFNGKEHIIETRIIINVFDGRLHDEQYITH” the protease stability score was 1.53.
“SEEEKILEDALRLLIEVDETGNWKLLQEMIDPNVLVDINGRKYHGREQWIRLLHEFIRDAGVQRIHSDIEHIEIQGEKIIMHGMLDINGQRRRTEVIAHKYDGRWFVEEIRIR” gave a protease stability score of 2.11.
With “DEHQERNRRALEEMNRILDTGDWEELTELADPHVRIHYGEFNLHGREDAHRFWKHIVERFKGIRVNIHDVKMVGNYVDVDGHLEIGDKEHKVRIIAFKINGRWLLHSMHFV” the protease stability score was 1.38.
“DEEEDTARFLMELILHDLETGDEERLFRLMDPHTRLDIDGQQYHGRELVLQLHETLLERWGVERVEAFLRRTEIQGEKVLSDVHRHFNGVTVKTHIVLEKFNGRWSTKTLEYK” showed a protease stability score of 0.6.
In the case of “DEEDDEAREVHERLVRAFKTGNEELLLKMADPNTRDLFVVDGRTIHLVGWEHWRISLHELRIHDQRIRRSHVIDGRVHSDWEIDVEFNGRRSRKKLEIRIEVVNGVTKSVEFIFR”, the protease stability score is reported as 1.31.
“SEEDEETRKFLDLLFETRHTGDEEMSRQLADPNYQEEFENHTFHGREDFSRFIKELRIHEIRITHIYAQGDKLHIDGELRGEFNGQEVRFRVELHVVKIDGRWVLKSMRVV” showed a protease stability score of 1.44.
“DEHERLLIKIARIITNLLLTGDEDIMEELADPNVRFELDFNGVDIHLIGMDFWRHNLEHWWVDHFRLEDVKIQGDYAHLKLNVHMEINGRRHETHTRLSIVVVNGKLKSMRFHLI” showed a protease stability score of 1.2.
“DEFHHSVELAIRIIFEILRTGDEHHMDTMADPDVRIIIGDKHNVGRELVKDVMRRLVTEWRIRHWEIKNSHLIGDKLLVDSHVEVEVGDFNLRTDVHLVFTKINGRWTLHSHHID” showed a protease stability score of 1.09.
Work on “SEYERDFRYAFNIYARDVLTGDEESLRRLLDPNMRIDVNGVHIHGREHLLQIWHEIRIHHFEIDLKHIEVQGNKIHVHGETHIDGEINGQRDEFKIRDSLLVLKVNGKWIFKRFIVD” yielded a protease stability score of 0.951.
“SEHKEEVHEMIKLFLEALRTGDEDWLKTMIDPNDRIRVGDKELHGREEFDKIVHFFKNARIHLHHYSVINGRVTIHMILHFNGKTFEIHIYAEKVDGRWRHRESEMHER” showed a protease stability score of 1.38.
In the case of “EEEKESHQWILEVYMHTVRTGDPRMIKELLDPNVKLEAENREVHGREHVLKILWTKLHEMRIEHVTVEDVEVQGNKVRVHNEVHYTFDGQRDILKTEVIATKFDGRWHFKSLREK”, the protease stability score is reported as 0.222.
